Assay [1] has as its target human liver cathepsin L (human). Nature of the assay: enzyme inhibition assay (Ki from substrate hydrolysis progress curves); human cathepsin L activity in 400 mM sodium acetate buffer (pH 5.5), 40 µM Z-FR-AMC, 25°C, with or without NtCYS, reducing conditions.
The target of assay [2] is recombinant NtCP14 (N. tabacum). The experiment in a line: enzyme inhibition assay (Ki(app) = [I0]/(V0/Vi-1)); apparent; recombinant NtCP14 activated in 100 mM sodium acetate (pH 4.0); hydrolysis of 40 µM Bz-FVR-AMC at 30°C, pH 6.0, reducing conditions, NtCYS varied.
recombinant NtCP14 (N. tabacum), sequence (main, as listed by the source): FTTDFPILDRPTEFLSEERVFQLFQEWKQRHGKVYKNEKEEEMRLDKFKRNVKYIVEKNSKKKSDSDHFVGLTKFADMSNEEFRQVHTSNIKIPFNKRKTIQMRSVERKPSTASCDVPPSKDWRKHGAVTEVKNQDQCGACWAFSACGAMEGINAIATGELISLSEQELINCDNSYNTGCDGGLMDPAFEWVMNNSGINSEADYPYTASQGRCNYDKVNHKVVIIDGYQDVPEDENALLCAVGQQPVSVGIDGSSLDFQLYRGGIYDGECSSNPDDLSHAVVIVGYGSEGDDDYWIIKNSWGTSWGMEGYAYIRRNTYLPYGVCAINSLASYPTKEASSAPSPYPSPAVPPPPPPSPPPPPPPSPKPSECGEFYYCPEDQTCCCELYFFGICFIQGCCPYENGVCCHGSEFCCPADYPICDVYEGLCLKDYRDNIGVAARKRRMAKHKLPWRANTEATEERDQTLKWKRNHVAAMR
Assay [3] deals with papain (from papaya latex) (papaya) (UniProt P00784). The experiment in a line: enzyme inhibition assay (Ki from substrate hydrolysis progress curves); papain activity in 50 mM phosphate buffer (pH 6.0), 40 µM Z-FR-AMC, 37°C, with or without NtCYS, reducing conditions.
papain (from papaya latex) (papaya), sequence (P00784 134-345): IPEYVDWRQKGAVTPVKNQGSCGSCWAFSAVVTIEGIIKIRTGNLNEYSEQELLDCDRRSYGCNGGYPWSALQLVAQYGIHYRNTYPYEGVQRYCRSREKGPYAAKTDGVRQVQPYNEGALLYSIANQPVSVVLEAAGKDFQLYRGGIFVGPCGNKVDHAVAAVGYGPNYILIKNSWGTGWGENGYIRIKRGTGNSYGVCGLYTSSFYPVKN

From publication PMC3769231 come the findings set out here.

pKi: −log10 of the molar value.

Consider recombinant NtCYS (natural protein), for which the pKi is 9.41 in assay [1], 6.13 in assay [2] and 7.19 in assay [3].
